Results from paper PMC9893541 (BMC Biology, 2023).

B3: GDF5 homodimer (ligand, human, UniProt P43026 382-501, looked up)
chain: APLATRQGKRPSKNLKARCSRKALHVNFKDMGWDDWIIAPLEYEAFHCEGLCEFPLRSHLEPTNHAVIQTLMNSMDPESTPPTCCVPTRLSPISILFIDSANNVVYKQYEDMVVESCGCR
notes: Growth and Differentiation Factor 5 (GDF5), mature domain; Dimer stabilised by an inter-chain disulfide bond; also called homodimeric GDF5; Growth and Differentiation Factor 5
B4: mature GDF5 (single chain) (natural protein, human, UniProt P43026 382-501, looked up)
chain: APLATRQGKRPSKNLKARCSRKALHVNFKDMGWDDWIIAPLEYEAFHCEGLCEFPLRSHLEPTNHAVIQTLMNSMDPESTPPTCCVPTRLSPISILFIDSANNVVYKQYEDMVVESCGCR
notes: Growth and Differentiation Factor 5 (GDF5), mature domain; The single chain before dimerisation; used for the rows on dimer formation; also called GDF5 monomer; GDF5 chain; source: E. coli Rosetta (DE3), inclusion bodies, solubilised in urea, clarified (minimum 90 % purity)
B7: FC-(Alk3)2 (Fc fusion, UniProt P36894 24-152, looked up)
chain: QNLDSMLHGTGMKSDSDQKKSENGVTLAPEDTLPFLKCYCSGHCPDDAINNTCITNGHCFAIIEEDDQGETTLASGCMKYEGSDFQCKDSPKAQLRRTIECCRTNLCNQYLQPTLPPVVIGPFFDGSIR
notes: type 1 receptor Alk3 (BMPR1A) in a recombinant chimeric Fc-receptor; also called chimeric FC-receptor; source: bought: R&D (Cat# 315-BR-100/CF)
B8: FC-(ActRIIb)2 (Fc fusion, UniProt Q13705-1 19-137, looked up)
chain: SGRGEAETRECIYYNANWELERTNQSGLERCEGEQDKRLHCYASWRNSSGTIELVKKGCWLDDFNCYDRQECVATEENPQVYFCCCEGNFCNERFTHLPEAGGPEVTYEPPPTAPTLLT
notes: type 2 receptor ActRIIb (ACVR2B) in a recombinant chimeric Fc-receptor; also called (ActRIIB)2-Fc; source: bought: R&D (Cat# 339-RB-100/CF)
B10: FC-(BMPR2)2 (Fc fusion, UniProt Q13873 27-150, looked up)
chain: SQNQERLCAFKDPYQQDLGIGESRISHENGTILCSKGSTCYGLWEKSKGDINLVKQGCWSHIGDPQECHYEECVVTTTPPSIQNGTYRFCCCSTDLCNVNFTENFPPPDTTPLSPPHSFNRDET
notes: type 2 receptor BMPR2 in a recombinant chimeric Fc-receptor; source: bought: R&D (Cat# 811-BR-100)

Tests used:
[1] = molecular target: the molecule itself; experiment: oxidative refolding of mixed chains, heparin affinity chromatography, SDS-PAGE and Western blot (reducing and non-reducing), MALDI-TOF mass spectrometry; solubilised inclusion bodies mixed in a 1:1 molar ratio, refolded 5 days in 0.1 M Tris pH 8.5, 0.5 M L-arginine, 0.3 % CHAPS, 150 mM NaCl, 1 mM reduced and 1 mM oxidized glutathione, 1 mM EDTA; heparin column eluted with 150-650 mM NaCl; disulfide-linked dimers
[2] = molecular target: B4; experiment: as above; settings: both partners purified
[3] = molecular target: B7; experiment: SPR; BIAcore T-200; chimeric Fc-type 1 receptor coupled to a Series S Protein A chip; ligands 6.25-0.049 nM flowed at 50 uL/min, 300 s association, 1000 s dissociation; 20 mM HEPES pH 7.4, 350 mM NaCl, 0.005 % P-20, 0.5 mg/mL BSA, 3.4 mM EDTA; kinetic 1:1 fit (also a bivalent fit); apparent KD = kd/ka; average of N=2; settings: both partners purified
[4] = molecular target: B8; experiment: SPR; chimeric Fc-type 2 receptor coupled to a Series S Protein A chip; ligands 100-0.198 nM in SPR buffer, 300 s association, 1000 s dissociation; steady-state analysis; apparent affinities; average of N=2; settings: both partners purified
[5] = molecular target: B10; experiment: as above; settings: both partners purified
[6] = molecular target: T1, BMP4/GDF5 heterodimer (human, UniProt P12644 293-408; P43026 382-501); experiment: SPR; BIAcore T-200; chimeric Fc-type 1 receptor coupled to a Series S Protein A chip; ligands 6.25-0.049 nM flowed at 50 uL/min, 300 s association, 1000 s dissociation; 20 mM HEPES pH 7.4, 350 mM NaCl, 0.005 % P-20, 0.5 mg/mL BSA, 3.4 mM EDTA; kinetic 1:1 fit (also a bivalent fit); apparent KD = kd/ka; average of N=2; settings: both partners purified
T1 construct: additional Met residue on the N-terminus of the BMP4 construct; bone morphogenetic protein 4 (BMP4), mature domain; Growth and Differentiation Factor 5 (GDF5), mature domain; Made by people from two natural mature chains; disulfide-linked dimer; also called GDF5/BMP4; copies: 1 + 1
T1 sequence 1: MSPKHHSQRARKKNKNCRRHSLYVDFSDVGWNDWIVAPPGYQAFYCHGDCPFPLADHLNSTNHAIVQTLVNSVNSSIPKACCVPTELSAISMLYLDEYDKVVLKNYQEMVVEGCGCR
T1 sequence 2: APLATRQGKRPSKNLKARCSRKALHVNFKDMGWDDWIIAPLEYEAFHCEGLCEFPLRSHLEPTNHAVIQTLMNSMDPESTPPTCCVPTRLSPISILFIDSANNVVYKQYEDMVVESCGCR

[7] = molecular target: T2, BMP2/GDF5 heterodimer (human, UniProt P12643 283-396; P43026 382-501); experiment: SPR; chimeric Fc-type 2 receptor coupled to a Series S Protein A chip; ligands 100-0.198 nM in SPR buffer, 300 s association, 1000 s dissociation; steady-state analysis; apparent affinities; average of N=2; settings: both partners purified
T2 construct: bone morphogenetic protein 2 (BMP2), mature domain; Growth and Differentiation Factor 5 (GDF5), mature domain; Made by people from two natural mature chains; disulfide-linked dimer; also called GDF5/BMP2; WT heterodimer; copies: 1 + 1

[8] = molecular target: B3; experiment: as above; settings: both partners purified
[9] = molecular target: T1, BMP4/GDF5 heterodimer; experiment: as above; settings: both partners purified
[10] = molecular target: T3, FC-(Alk6)2 (UniProt O00238 14-126); experiment: SPR; BIAcore T-200; chimeric Fc-type 1 receptor coupled to a Series S Protein A chip; ligands 6.25-0.049 nM flowed at 50 uL/min, 300 s association, 1000 s dissociation; 20 mM HEPES pH 7.4, 350 mM NaCl, 0.005 % P-20, 0.5 mg/mL BSA, 3.4 mM EDTA; kinetic 1:1 fit (also a bivalent fit); apparent KD = kd/ka; average of N=2; settings: both partners purified
T3 construct: type 1 receptor Alk6 (BMPR1B) in a recombinant chimeric Fc-receptor; also called chimeric FC-receptor; source: bought: R&D (Cat# 505-PR-100)
T3 sequence (looked up): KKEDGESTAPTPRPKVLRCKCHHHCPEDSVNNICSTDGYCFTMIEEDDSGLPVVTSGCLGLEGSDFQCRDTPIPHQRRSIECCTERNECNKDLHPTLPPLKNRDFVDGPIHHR

B1: mature BMP2 (single chain) (natural protein, human, UniProt P12643 283-396, looked up)
chain: QAKHKQRKRLKSSCKRHPLYVDFSDVGWNDWIVAPPGYHAFYCHGECPFPLADHLNSTNHAIVQTLVNSVNSKIPKACCVPTELSAISMLYLDENEKVVLKNYQDMVVEGCGCR
notes: bone morphogenetic protein 2 (BMP2), mature domain; The single chain before dimerisation; used for the rows on dimer formation; also called BMP2 monomer; BMP2 chain; source: E. coli Rosetta (DE3), inclusion bodies, solubilised in urea, clarified (minimum 90 % purity)
binding result [1]: binds | binding result [2]: binds

B2: mature BMP2 L333P (single chain) (natural protein, human, UniProt P12643 283-396, looked up)
chain: QAKHKQRKRLKSSCKRHPLYVDFSDVGWNDWIVAPPGYHAFYCHGECPFPPADHLNSTNHAIVQTLVNSVNSKIPKACCVPTELSAISMLYLDENEKVVLKNYQDMVVEGCGCR
notes: bone morphogenetic protein 2 (BMP2), mature domain, with L333P; The single chain before dimerisation; used for the rows on dimer formation; also called L333P BMP2; source: E. coli Rosetta (DE3), inclusion bodies, solubilised in urea
binding result [1]: binds | binding result [2]: binds

B3
Kd [3]: 0.328 nM

B4
binding result [1]: binds

B5: BMP4 homodimer (ligand, human)
chain: MSPKHHSQRARKKNKNCRRHSLYVDFSDVGWNDWIVAPPGYQAFYCHGDCPFPLADHLNSTNHAIVQTLVNSVNSSIPKACCVPTELSAISMLYLDEYDKVVLKNYQEMVVEGCGCR
notes: additional Met residue on the N-terminus of the BMP4 construct; bone morphogenetic protein 4 (BMP4), mature domain; Dimer stabilised by an inter-chain disulfide bond; also called homodimeric BMP4
binding result [4]: binds | binding result [5]: binds | Kd [3]: 0.072 nM

B6: mature BMP4 (single chain) (natural protein, human)
chain: MSPKHHSQRARKKNKNCRRHSLYVDFSDVGWNDWIVAPPGYQAFYCHGDCPFPLADHLNSTNHAIVQTLVNSVNSSIPKACCVPTELSAISMLYLDEYDKVVLKNYQEMVVEGCGCR
notes: additional Met residue on the N-terminus of the BMP4 construct; bone morphogenetic protein 4 (BMP4), mature domain; The single chain before dimerisation; used for the rows on dimer formation; also called BMP4 monomer; monomeric BMP4; source: E. coli Rosetta (DE3), inclusion bodies, solubilised in urea, clarified (minimum 90 % purity)
binding result [1]: binds | binding result [2]: binds

B7
Kd [6]: 0.029 nM

B8
binding result [7]: binds | binding result [8]: binds | binding result [9]: binds

B9: BMP2_L333P/GDF5 heterodimer (complex, human)
chain 1: QAKHKQRKRLKSSCKRHPLYVDFSDVGWNDWIVAPPGYHAFYCHGECPFPPADHLNSTNHAIVQTLVNSVNSKIPKACCVPTELSAISMLYLDENEKVVLKNYQDMVVEGCGCR
chain 2: APLATRQGKRPSKNLKARCSRKALHVNFKDMGWDDWIIAPLEYEAFHCEGLCEFPLRSHLEPTNHAVIQTLMNSMDPESTPPTCCVPTRLSPISILFIDSANNVVYKQYEDMVVESCGCR
notes: bone morphogenetic protein 2 (BMP2), mature domain, with L333P; Growth and Differentiation Factor 5 (GDF5), mature domain, wild type; Predicted by the authors to have one disrupted type 1 site (GFBW) and one functional site (BFGW); also called mutant heterodimer; copies: 1 + 1
fold decrease in KD (so in the source) against WT GDF5 homodimer [10]: ~5 fold

B10
binding result [7]: binds | binding result [9]: binds
